± gives the uncertainty stated by the source.

A short description of the data set: amyloid nucleation score (Sup35N fusion, yeast selection) (log enrichment); library NNK3; higher = more nucleation; inactive = no reads after selection. Put shortly:
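Random libraries were run with three technical output replicates. In each, psi-negative yeast expressing Sup35N fused to peptides of 20 random codons were induced 24 hours with 100 μM copper sulfate and grown 7 days at 30°C on medium lacking adenine and uracil, and input and output plasmid inserts were Illumina-sequenced. The nucleation score is the DiMSum log enrichment of output over input reads, centred on the mode score of non-aggregating sequences, and sequences under 100 input reads were excluded.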
Turning to SKALVSLWFLISMMNPYFIR, the amyloid nucleation score result was “inactive”.
With FVKLIYWLGAWVSTLCG, the amyloid nucleation score entry was “inactive”.
As to ISKLVY, the amyloid nucleation score result was “inactive”.
As to NFGRAQSNACAENVFAIERG, the amyloid nucleation score result is “inactive”.
For RAWMCIQW the value was 0.382 ± 0.25.
For ISIVKGCAFGLLSTFMATPS, the amyloid nucleation score turned out to be 0.079 ± 0.75.
The result for LRIKMGIYAHDLCAVIMYTL reads 0.515 ± 0.35.
For the substance KRYAYAVVGGWVVGVRKHHG, the amyloid nucleation score result is “inactive”.
As to KVIRESVKSLRHFKFAWLLS, the amyloid nucleation score result is “inactive”.
Turning to GESYDCLLLHSRVWLSVVMG, the amyloid nucleation score result is “inactive”.
For IASSSWHVMIWYSPRSCVFS, the amyloid nucleation score result is “inactive”.
As for ALLESFIKKRSMFLNVNGGF, the amyloid nucleation score entry is “inactive”.
In the case of IKFGLTYSRSTMSGHSLKGY, the amyloid nucleation score entry was “inactive”.
With NRSFSNGCVIRLELFNNVYA, the amyloid nucleation score result is “inactive”.
In the case of MIIPFLLLTMLITKSWLLIW, the amyloid nucleation score result was “inactive”.
Turning to SCYTMAFPVLWVHAQYCMNK, the amyloid nucleation score entry was “inactive”.
On to KTFCVVDTR, for which the amyloid nucleation score result was “inactive”.
With NMIFA, the amyloid nucleation score result is “inactive”.
In the case of FGKGRHWISAPSRWVRGDFG, the amyloid nucleation score result was “inactive”.
As to RRGSNTGCPNVQNFVITLWQ, the amyloid nucleation score result is “inactive”.
As to YTIPSPVGLVLDSPVEIRDL, the amyloid nucleation score result is “inactive”.
TYTYCTLNSLTDSRSETILV: the amyloid nucleation score result is “inactive”.
Take GFSDLCQHYFQYLVK: the amyloid nucleation score entry is “inactive”.
Regarding NQTGSSRTSCCMDRWLMYIA, the amyloid nucleation score result was “inactive”.
As to TTMRSIPRGRRT, the amyloid nucleation score result is “inactive”.
The result for YCLVV reads “inactive”; that for AQYLLYINDPCTCVVATPCR, “inactive”; that for MSKARFRWSDNTDPFFSVGQ, 0.196 ± 0.51.
In the case of YDLVIGCVMNVLFVLRCATR, the amyloid nucleation score entry is “inactive”.
In the case of ECGWNMFCDRAHMSLGFYSM, the amyloid nucleation score result is “inactive”.
IDCLLLFSIGEVLKSGNNSR had an amyloid nucleation score of 0.335 ± 0.17.
For EFIGGRAMLYEEWYMGVSSM the value was “inactive”; for YLRQIYFPCSTP, “inactive”; for FVVCSAM, “inactive”.
The result for GLYSLYLFGTLYRQAQRGCE reads 0.52 ± 0.21; that for RENTNSFGVNCGTQFGRISL, 1.56 ± 0.099.
Consider SYLFYMHSSVLGSLMGQRDH, for which the amyloid nucleation score result is “inactive”.
The result for VGLIRCLVDVKLI reads “inactive”.
ICTCKWRLTLEQTSFVDGLT: the amyloid nucleation score entry was “inactive”.
For the substance GERFAVTSVSDHVTDKKTLS, the amyloid nucleation score is 1.77 ± 0.093.
In turn, VQGTILRSRQNCTL came in with an amyloid nucleation score of 0.308 ± 0.48.
For the substance ISNSLSIEGLAY, the amyloid nucleation score entry is “inactive”.
As for TICVYHVSFCIQHRVSRGLL, the amyloid nucleation score was -0.18 ± 0.36.
As to CTHEFTTRHLICFRFSKLVY, the amyloid nucleation score entry was “inactive”.
Turning to SCVVFGSQTLRVVFFDRVSS, the amyloid nucleation score was found to be 0.184 ± 0.32.
WIMWTLAIKIIMCW: the amyloid nucleation score entry was “inactive”.
For AMFTRSRVSITLCGRWAYCS the value was “inactive”.
On to NVVYTFPLYASDMGIGV, for which the amyloid nucleation score result is “inactive”.
In the case of SVELNTKLVRYEVLSRMYRA, the amyloid nucleation score result is “inactive”.
For SMADHAESLNSSGSNRQQLG the value was “inactive”; for SWHDINVAFADSFIDSKETC, “inactive”; for RFIVHIYNMN, 2.59 ± 0.059.
Take NDIMKTCFFNTYAYHLSVVM: the amyloid nucleation score result was “inactive”.
For LNSVKAGFINTKDPVMDSMC the value was -0.254 ± 0.84; for YTVEWWVINCFGGKADL, “inactive”.
As for VMLRTFSA, the amyloid nucleation score result was “inactive”.
With VAPGDPNMIGHGLHVFTTTL, the amyloid nucleation score is -0.498 ± 0.83.
For CLISLDHIFLPSWNTGICIL the value was “inactive”; for IITSLK, 0.154 ± 0.27.
EVSSGCCERGVYLMLLCTGT had an amyloid nucleation score of 0.091 ± 0.53.
As to TYSGRSKSILTGSID, the amyloid nucleation score result is “inactive”.
Consider WSVVRRAELSNSVKFEDHGM, for which the amyloid nucleation score result was “inactive”.
In the case of MRSRGTLHYATDSLWSLGEP, the amyloid nucleation score result was “inactive”.
For WVFVDLLSNVVFNGKIVERC, the amyloid nucleation score entry was “inactive”.
In turn, IYAVSCVCVGIYGTIRLTSG displayed an amyloid nucleation score of 0.017 ± 0.23.
On to AFVFATAITELVYCSCLNRP, for which the amyloid nucleation score is 2.04 ± 0.089.
SWCQGNCGMLLAHRSYKRAY returned an amyloid nucleation score of -0.48 ± 0.55.
For RNTVSSTQEIWRLPISLEKT the value was “inactive”.
As for LIRYPGRSEDTVRFWRERMG, the amyloid nucleation score entry was “inactive”.
For SELLPNYTKGVLTGDIYSRY the value was “inactive”; for NDNIDPTRVIQ, “inactive”.
As to GNLNGILFRISRQKEM, the amyloid nucleation score entry was “inactive”.
On to RVNRCLLMMVDALYQNCTLN, for which the amyloid nucleation score result is “inactive”.
Regarding MPGLAVFGCPRRCCGFRGLV, the amyloid nucleation score entry is “inactive”.
The result for ITNYLWGGKGHRNKVLSNSC reads “inactive”; that for KEVMFR, 1.64 ± 0.12.
SSPRYVCWNF: the amyloid nucleation score result was “inactive”.
With TLFFSNDRVRFGRSTSRCHM, the amyloid nucleation score result was “inactive”.
For MMAFTVFISEQDYSGIIFYE, the amyloid nucleation score entry is “inactive”.
As to GICIGTDKTFYCLGMSFF, the amyloid nucleation score result was “inactive”.
TAVKTGGLLRVVALGNSLNA: the amyloid nucleation score came out at 0.399 ± 0.24.
Take LDVKQSSRSLREAVDVFNNH: the amyloid nucleation score entry was “inactive”.
With RYVIV, the amyloid nucleation score result was “inactive”.
As to YPSDPLLILDLGIAAC, the amyloid nucleation score result was “inactive”.
On to ACIVARARSSVVTCF, for which the amyloid nucleation score entry is “inactive”.
For LSEWI the value was “inactive”.
In the case of YCVLVIFVGFCFMEFENVTQ, the amyloid nucleation score result is “inactive”.
With SWVHVSTFWYVAFGFEKSAG, the amyloid nucleation score result was “inactive”.
With FVMLVSEYGKELYIIGRPGA, the amyloid nucleation score entry was “inactive”.
Consider HEWATWRDVLQVTTFFVLHM, for which the amyloid nucleation score result is “inactive”.
For the substance WCCGY, the amyloid nucleation score was 0.774 ± 0.27.
In the case of QRGVLL, the amyloid nucleation score entry is “inactive”.
For FKIKKVN, the amyloid nucleation score result is “inactive”.
Consider SYMWPMSWQET, for which the amyloid nucleation score result was “inactive”.
YMAAVTFFEVY registered an amyloid nucleation score of 0.012 ± 0.34.
The result for WIKGVRIRPL reads “inactive”; that for DSDKNPHGVLSSIGCMYVRS, “inactive”; that for CYMFRDDRIVYHDGLNRHCK, “inactive”.
For the substance QGFFGDNNAV, the amyloid nucleation score entry was “inactive”.
Regarding DGGYFGNSWFIHGDSLFQMG, the amyloid nucleation score entry was “inactive”.
For the substance NMDSAWKCPHPYKSLTIVCF, the amyloid nucleation score entry is “inactive”.
For AYADGYNLFWDYK, the amyloid nucleation score entry was “inactive”.
For SVMYVQNFPYLLSYWRSFIG the value was “inactive”.
On to THLRLIYITD, for which the amyloid nucleation score entry was “inactive”.
On to YIPIYRFVMIS, for which the amyloid nucleation score result was “inactive”.
As for PVLWPLFKYVCFLTW, the amyloid nucleation score entry was “inactive”.
IRYPVRV: the amyloid nucleation score result is “inactive”.
In the case of MTDDRWLRRRVSPCSVRRFS, the amyloid nucleation score result is “inactive”.
As for IEFMCLHGKVTLITIVF, the amyloid nucleation score result was “inactive”.
With FYDHRIRSCGLVFIKECVTP, the amyloid nucleation score entry was “inactive”.
The result for LLVSIFLGYPQ reads “inactive”.
For VGRHDNGVSDFAMTSSWVFF, the amyloid nucleation score entry was “inactive”.
LYDDVSTVWNKKTEVGQLLN: the amyloid nucleation score result is “inactive”.
In the case of YNRANYAKRVCTSSVNVETE, the amyloid nucleation score was 0.294 ± 0.47.
On to PVGVMTVSDLLFDYFAFRSF, for which the amyloid nucleation score result was “inactive”.
As to SGVYLTNNVWGFLYRATISG, the amyloid nucleation score result is “inactive”.
As for TVSCLLKKVSRIVTVCVEWD, the amyloid nucleation score result is “inactive”.
The result for DEFEMLLEGWVSVVGMMTRE reads “inactive”.
The result for FNKDINRPYKCKAH reads “inactive”; that for WLFLVN, “inactive”.
QTSRT: the amyloid nucleation score entry is “inactive”.
For GTASRG the value was “inactive”; for TIIDGLKCFFPAFFME, “inactive”.
As for FAGESN, the amyloid nucleation score entry is “inactive”.
With ANIFGVNTFGESRKHSIARC, the amyloid nucleation score result is “inactive”.
In the case of SARSGAAISTSSNKVTPVYT, the amyloid nucleation score entry is “inactive”.
For WFFMTCNGCFDHGGVKCLRS the value was “inactive”; for TYSGRIKLFLCWMLILSNGT, “inactive”.
For the substance DCSSNVRTSCWNHRSYHVVY, the amyloid nucleation score result is “inactive”.
The result for VLLLTMEFGASDVFCWVVKY reads “inactive”.
With WFTQERHSVPLLIWMGLRRQ, the amyloid nucleation score is 2.03 ± 0.075.

These data come from the supplement of paper PMC12042874.
